The values below come from US12428633B2, “Inducible dimerization of recombinases” (TRUSTEES OF BOSTON UNIVERSITY, priority 2016, dated 2025).

In the assay the test system is 2-input BLADE decoder in HEK293FT cells. The experiment in a line: 4OHT- and ABA-inducible 2-input BLADE decoder. The class given is cell-based, human. Particulars: transient transfection, 4OHT 1 μM, ABA 100 μM. How it is done:
DNA was transfected into the human embryonic kidney cell line (HEK293FT) using a polyethylenimine (PEI) protocol. Cells were plated onto 48-(2504) or 96-well (1004) plates the day prior to transfection (200,000 cells/mL), such that the cells were 50-70% confluent the day of transfection. Cells were kept in a humidified incubator at 37° C. and 5% CO2 and maintained in DMEM medium (Corning) with 10% Heat Inactivated Fetal Bovine Serum (Life Technologies), 50 U.I./mL penicillin/50 μg/mL streptomycin (Corning), 2 mM glutamine (Corning) and 1 mM sodium pyruvate (Lonza). PEI stocks were made from linear polyethylenimine (Polysciences 23966-2) and were dissolved at a concentration of 0.323 g/L in deionized water with the assistance of concentrated hydrochloric acid and sodium hydroxide and then filtered sterilized (0.24 μm). PEI stocks were stored at −80° C. until use and warmed to room temperature prior to usage. […]
Two days post-transfection and after trypsinization (0.05% Trypsin/0.53 mM EDTA, Corning) and resuspension, all HEK293FT cell populations were analyzed using a Becton Dickinson (BD) LSRFortessa SORP flow cytometer with HTS, except for data in FIG. 5, which were recorded on a BD LSRII. Time-course data was achieved through trypsinization and fixation of cells at particular time points (BD Cytofix) and kept at 4° C. until analyzed through flow cytometry. […]

B1: split Flp system: split Flp recombinase construct fused to ABA-binding domains ABI and PYL (SEQ ID NO: 38 and 39) (protein)
chain 1: MSQFDILCKTPPKVLVRQFVERFERPSGEKIASCAAELTYLCWMITHNGTAIKRATFMSYNTIISNSLSFDIVNKSLQFKYKTQKATILEASLKKLIPAWEFTIIPYNGQKHQSDITDIVSSLQLQFESSEEADKGNSHSKKMLKALLSEGESIWEITEKILNSFEYTSRFTKTKTLYQFLFLATFINCGRFSDIKNVDPKSFKLVQNKYLGVIIQCLVTETKTSVSRHIYFFSARGRIDPLVYLDEFLRNSEPVLKRVNRTGNSSSNKQEYQLLKDNLVRSYNKALKKNAPYPIFAIKNGPKSHIGRHLMTSFLSMKGLTELTNVVGNWSDKRASAVARTTYTHQITAIPDHYFALVSRYYAYDPISKEMIALKDETNPIEEWQHIEQLKGSAEGSGGSGSGSSGGSGTPLYGFTSICGRRPEMEDAVSTIPRFLQSSSGSMLDGRFDPQSAAHFFGVYDGHGGSQVANYCRERMHLALAEEIAKEKPMLCDGDTWLEKWKKALFNSFLRVDSEIGSVAPETVGSTSVVAVVFPSHIFVANCGDSRAVLCRGKTALPLSVDHKPDREDEAARIEAAGGKVIQWNGARVFGVLAMSRSIGDRYLKPSIIPDPEVTAVKRVKEDDCLILASDGVWDVMTDEEACEMARKRILLWHKKNAVAGDASLLADERRKEGKDPAAMSAAEYLSKLAIQRGSKDNISVVVVDLKDYKDDDDKPKKKRKV
chain 2: MAPTQDEFTQLSQSIAEFHTYQLGNGRCSSLLAQRIHAPPETVWSVVRRFDRPQIYKHFIKSCNVSEDFEMRVGCTRDVNVISGLPANTSRERLDLLDDDRRVTGFSITGGEHRLRNYKSVTTVHRFEKEEEEERIWTVVLESYVVDVPEGNSEEDTRLFADTVIRLNLQKLASITEAMNYPYDVPDYASGGSGSGSSGGSGTSIRYPAWNGIISQEVLDYLSSYINRRIPKKKRKV
In the case of B1, the “Leaky recombinase behavior on 2-input BLADE decoder” value is reported as “minimal leaky recombinase behavior”.
